Earlier results as cited in PMC5467299.

Assays:
tPA (Homo sapiens) = tPA (Homo sapiens) (UniProt P00750)
[1] = biological target: Plasminogen (Homo sapiens) (UniProt P00747)
UniProt P00747, sequence (P00747 20-810): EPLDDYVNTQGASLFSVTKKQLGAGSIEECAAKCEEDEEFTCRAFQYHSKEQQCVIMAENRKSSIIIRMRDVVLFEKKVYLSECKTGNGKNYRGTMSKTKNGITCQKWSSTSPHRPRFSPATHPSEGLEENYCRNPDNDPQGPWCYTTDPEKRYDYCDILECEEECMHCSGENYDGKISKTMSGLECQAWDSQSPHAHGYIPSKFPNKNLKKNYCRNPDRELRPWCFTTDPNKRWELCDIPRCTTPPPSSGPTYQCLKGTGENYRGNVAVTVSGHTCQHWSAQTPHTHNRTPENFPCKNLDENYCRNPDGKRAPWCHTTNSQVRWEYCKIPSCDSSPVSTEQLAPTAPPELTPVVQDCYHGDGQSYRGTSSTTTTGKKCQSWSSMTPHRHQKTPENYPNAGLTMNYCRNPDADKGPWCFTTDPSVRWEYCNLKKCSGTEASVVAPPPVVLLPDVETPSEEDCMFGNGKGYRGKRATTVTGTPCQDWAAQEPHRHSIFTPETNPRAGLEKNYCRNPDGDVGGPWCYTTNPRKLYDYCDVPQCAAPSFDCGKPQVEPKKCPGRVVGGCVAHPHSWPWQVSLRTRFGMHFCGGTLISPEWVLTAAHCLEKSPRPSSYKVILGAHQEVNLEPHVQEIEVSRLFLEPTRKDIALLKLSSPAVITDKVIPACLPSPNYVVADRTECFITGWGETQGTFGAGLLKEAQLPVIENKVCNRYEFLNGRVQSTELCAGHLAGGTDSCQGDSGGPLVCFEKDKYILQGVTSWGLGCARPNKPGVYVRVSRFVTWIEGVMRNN

UniProt P00750, sequence (P00750 36-562): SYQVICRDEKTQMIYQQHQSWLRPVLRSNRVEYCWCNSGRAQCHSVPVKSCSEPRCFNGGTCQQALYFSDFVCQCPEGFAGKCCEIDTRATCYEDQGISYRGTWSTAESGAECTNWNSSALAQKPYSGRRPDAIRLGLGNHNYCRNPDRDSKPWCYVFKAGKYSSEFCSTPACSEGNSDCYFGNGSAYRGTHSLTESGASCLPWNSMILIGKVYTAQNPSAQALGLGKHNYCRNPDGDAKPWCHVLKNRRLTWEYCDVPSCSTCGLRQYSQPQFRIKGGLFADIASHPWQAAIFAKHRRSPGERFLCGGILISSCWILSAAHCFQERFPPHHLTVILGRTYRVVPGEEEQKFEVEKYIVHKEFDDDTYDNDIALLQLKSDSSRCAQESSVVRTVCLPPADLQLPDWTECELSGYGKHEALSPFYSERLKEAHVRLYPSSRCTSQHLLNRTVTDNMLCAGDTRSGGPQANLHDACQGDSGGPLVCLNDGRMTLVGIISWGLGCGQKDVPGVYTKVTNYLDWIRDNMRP

Kd (tPA (Homo sapiens)): 1000 nM
Kd [1]: 1000 nM
Substance: Fibrin alpha chain 148-160 (from UniProt P02671)
